We go through two proteins from PMC5114784, “Identification and characterization of two new 5-keto-4-deoxy-D-Glucarate Dehydratases/Decarboxylases” (BMC Biotechnology, 2016).

Substrate in data set [1]: O=C(O)C(=O)C[C@H](O)[C@@H](O)C(=O)O
Put plainly: purified protein. Format: biochemical, Acinetobacter baylyi. Particulars: 2.5 mM KPi pH 7.0, 2 mM MgCl2, 25 μg/ml BTB, 37 °C.

Substrate in data set [2]: O=C(O)C(=O)C[C@H](O)[C@@H](O)C(=O)O
The experiment in a line: purified protein. It counts as biochemical, Polaromonas naphthalenivorans. Particulars: 2.5 mM KPi pH 7.0, 2 mM MgCl2, 25 μg/ml BTB, 37 °C.

B1: KdgDAb (Acinetobacter baylyi ADP1) (protein)
chain: MDALELKNIVSDGLLSFPVTDFDQNGDFNAASYAKRLEWLAPYGASALFAAGGTGEFFSLTGDEYSDVIKTAVDACKGSVPIIAGAGGPTRQAILQAQEAERLGAHGILLMPHYLTEASQEGLVEHVKQVCNAVNFGVIFYNRSVSKLNVDSLQQLVESCPNLIGFKDSSGQIDMMTEVVQTLGDRLSYLGGLPTAEIFAAPYKALGSPVYSSAVFNFIPKTAMEFYNALRNDDFATTQRLIRDFFLPLIKIRNRKSGYAVSMVKAGAKIVGHDAGPVRPPLSDLTPQDYEDLAALIATLGPQ
notes: full-length, N-terminal His-tag (NH), codon-optimized gene, E. coli BL21(DE3), IMAC purified
Regarding B1, in data set [1], the Km worked out at 1000 ± 100 µM, the Vmax came out at 8 µmol/min/mg, the turnover number (kcat) was 4.5 ± 0.02 s⁻¹ and the catalytic efficiency (kcat/Km) was determined as 4500 M⁻¹ s⁻¹.

B2: KdgDPn (Polaromonas naphthalenivorans CJ2) (protein)
chain: MNPQDLKTIVSSGLLSFPVTDFDEQGDFRPKTYIERLEWLAPYGATALFAAGGTGEFFSLTGDEYPLIIKTAVNTCAGKVPIIAGVGGPTRFAIACAQEAERLGAHGILLLPHYLMEAGQEGLIAHVEAVCKSVKFGVIVYNRNVCKLTPESLAILADRCPNLIGFKDGVGNIETMSSIFMKMGDRFSYLGGLPTAEVYAAAYKALGTPVYSSAVFNFIPKTAMDFYHAVASDDLATQHRLLRDFFMPYLALRNKNPGYAVSIVKAGATIVGHDAGPVRPPLTDLKPAEMEELAVLIKSLGPQ
notes: full-length, C-terminal His-tag (CH), codon-optimized gene, E. coli ArcticExpress(DE3), IMAC purified
Consider B2, for which, in data set [2], the Km came out at 1100 ± 100 µM, the maximum rate (Vmax) was 3 µmol/min/mg, the kcat was 1.7 ± 0.01 s⁻¹ and the kcat/Km came to 1500 M⁻¹ s⁻¹.

As a reminder, the Km is the substrate concentration at which the rate is half of its maximum. In general, Vmax refers to the top rate of the reaction or transport when substrate is in excess. As a reminder, the kcat is the maximal rate divided by the concentration of active sites. One may read the kcat/Km as the second-order rate constant that governs catalysis at low substrate concentration.
